The target of test [1] is T1, rat NTNRα, endogenous on embryonic (E14) rat spinal motoneurons (rat).
T1 sequence (chain, GPI-linked): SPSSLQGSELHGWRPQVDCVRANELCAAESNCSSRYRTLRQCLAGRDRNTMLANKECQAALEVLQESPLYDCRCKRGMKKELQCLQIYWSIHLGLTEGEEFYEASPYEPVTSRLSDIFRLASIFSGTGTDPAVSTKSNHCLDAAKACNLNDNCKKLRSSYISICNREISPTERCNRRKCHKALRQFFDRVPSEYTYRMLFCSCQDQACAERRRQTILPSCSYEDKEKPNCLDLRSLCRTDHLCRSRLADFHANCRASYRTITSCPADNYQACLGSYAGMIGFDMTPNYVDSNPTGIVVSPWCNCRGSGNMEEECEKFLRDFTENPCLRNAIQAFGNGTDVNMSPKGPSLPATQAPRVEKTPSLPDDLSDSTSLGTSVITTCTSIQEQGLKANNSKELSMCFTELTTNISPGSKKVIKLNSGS
Briefly: cell-based or functional assay.

Test [2] addresses T2, recombinant soluble rat GDNFRα (rat, UniProt Q62997 25-430, limits assumed).
T2 construct: also called rGDNFRα; GFR-alpha-1
T2 sequence: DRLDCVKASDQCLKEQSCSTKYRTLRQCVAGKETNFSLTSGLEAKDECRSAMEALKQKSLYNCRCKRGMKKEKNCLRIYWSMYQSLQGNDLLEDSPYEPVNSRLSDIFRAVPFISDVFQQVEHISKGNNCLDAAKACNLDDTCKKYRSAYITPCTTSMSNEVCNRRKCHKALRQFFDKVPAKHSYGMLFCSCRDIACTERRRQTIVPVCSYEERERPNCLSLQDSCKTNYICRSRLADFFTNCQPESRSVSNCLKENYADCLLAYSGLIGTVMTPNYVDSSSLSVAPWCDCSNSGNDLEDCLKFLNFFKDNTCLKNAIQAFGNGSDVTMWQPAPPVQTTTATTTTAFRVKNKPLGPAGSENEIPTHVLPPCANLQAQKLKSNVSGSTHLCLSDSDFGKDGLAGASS
The experiment in a line: displacement of 125I-rGDNF from soluble GDNFRα by unlabeled NTN (10 nM). On the technique in general: Displacement assays read how much labelled ligand stays bound in the presence of the test substance.

The target of test [3] is T2, recombinant soluble rat GDNFRα. Briefly: binding of biotinylated NTN.
For test [4] the target is unchanged. The experiment in a line: competition binding of 125I-rGDNF to soluble rGDNFRα, Scatchard analysis.

From US20110136223A1 (Genentech, published 2011) come the findings set out here.

For orientation: Kd means the constant that tells how readily two partners part at equilibrium.

B1: Neurturin (NTN), species not stated at the place of use (ligand, UniProt Q99748 96-197, looked up, species assumed)
Neurturin: ARLGARPCGLRELEVRVSELGLGYASDETVLFRYCAGACEAAARVYDLGLRRLRQRRRLRRERVRAQPCCRPTAYEDEVSFLDAHSRYHTVHELSARECACV
B1: in test [1], the reduction of the motoneuron survival response to NTN after PIPLC treatment (FIG. 7C) fell in the range of 50 to 90% and the survival of E14 rat spinal motoneurons, counted 72 hours after addition of factor worked out at 50%. In test [2], the Kd was above 0.001 µM.

B2: mouse Neurturin (ligand, UniProt P97463 96-195, looked up)
chain: PGARPCGLRELEVRVSELGLGYTSDETVLFRYCAGACEAAIRIYDLGLRRLRQRRRVRRERARAHPCCRPTAYEDEVSFLDVHSRYHTLQELSARECACV
modifications: 125I-labelled when used as tracer
notes: also called mouse NTN; mNTN
B2: in test [3], the Kd is above 1000 µM.

B3: rat glial cell line-derived neurotrophic factor (ligand, UniProt Q07731 78-211, looked up)
chain: SPDKQAAALPRRERNRQAAAASPENSRGKGRRGQRGKNRGCVLTAIHLNVTDLGLGYETKEELIFRYCSGSCEAAETMYDKILKNLSRSRRLTSDKVGQACCRPVAFDDDLSFLDDSLVYHILRKHSAKRCGCI
modifications: 125I-labelled when used as tracer (iodinated either on tyrosine by the Bolton Hunter method or on lysine using lactoperoxidase)
notes: also called rGDNF; rat GDNF
In the case of B3, the Kd in test [4] came out at 3 pM.
